In the supplement of paper PMC12764529:
± gives the half width of the 95% confidence interval.

Assay: folding stability dG unfold from trypsin proteolysis; higher = more stable
Method in brief: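 Unfolding free energy was derived, per protease or combined, against a sequence-predicted unfolded-state K50 and a shared folded-state K50, starting from K50 inferred by Bayesian fitting of sequencing counts. Digestion with trypsin and chymotrypsin was carried out on designed mini-proteins under 80 residues without cysteine in a PA-tagged cDNA display construct. Only designs with AlphaFold2 dimer inter-PAE above 15 were kept.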

Row | Sequence | folding stability dG unfold
1 | SAGAAPVGARLVKVEPLPGDGPFVLVEVTPPDGKPGFILVPWEFFESGYLKNATAADIAKRFPFAKPASAGG [r19_74_TrMRF] | 0.513 ± 0.019 kcal/mol
2 | SAGGMPEEELTLIVRIKVYNPETGEEKEITLTITVKSEEELEKAKKLVEELEEKLKELGIKKVEIEILSAGG [r13_360_TrROS_Hall] | 2.92 ± 0.25 kcal/mol
3 | SASMGPEALVERIAEEIRKELGVDAGYKAPVEVRRPPDLVVVDAKLTVYKPDGNPLGEKTVRVVLPPLLSAG [r14_708_JUSTAS] | -0.0399 ± 0.083 kcal/mol
4 | SAGGSAGGSMVRVTRLPDGTYRIEIELPGESLEREARGPEEVEALAEEIEKETGVPVEIETLESAGGSAGGS [r12_783_JUSTAS] | 1.1 ± 0.068 kcal/mol
5 | SAGGSAGGSAGGGNMTITVMIPIEIPVFKYDGGKPEFEPFPIYIMVEVTVPEGAPLEEFSAGGSAGGSAGGS [r10_633_TrROS] | 2.1 ± 0.076 kcal/mol
6 | SAGGSAGGSAGMKITIDGKVAEIEEVEVDGKLYYFIRVEGRLYVFDVETGEIREISPEDLSAGGSAGGSAGG [r11_9_TrROS_Hall] | 3.14 ± 0.074 kcal/mol
7 | SAGGSAGGSAGMRIRAEVVEISPPGAVIVLRYEIEFPLPDDEPVRLEFDAVLYIPVPPEASAGGSAGGSAGG [r11_689_TrMRF] | 2.63 ± 0.12 kcal/mol
8 | SAGGSAGGSAKIKPGEKVEITLKDGSKVIIEKKEDGKYLARIIDKKTNEVKTVPLDKIKLVSAGGSAGGSAG [r3_213_TrROS_Hall] | 0.99 ± 0.057 kcal/mol
9 | SAGGSAMVVRITTKDGKKIEITVKSVEELLEALKELGVEEVKLEKLPDGKELKLTVTLKDGKIEILSAGGSA [r15_632_TrROS_Hall] | 3.14 ± 0.087 kcal/mol
10 | SGPTSTVDPEFPGSTPGGTVTPSVVRVPVPPDEVERVIEEIRERAGVPGLKVERVERTADGVVLIEVSLPSA [r9_1101_JUSTAS] | 0.36 ± 0.029 kcal/mol
11 | SAGGNIRIWFPGREIPIGGTVEDIKANIRKWLGRPIPEELIEQIDKGKTVSEIVDWLRKRGFPIRIWSAGGS [r16_601_TrROS] | 1.78 ± 0.031 kcal/mol
12 | SAGGSAGGSAGKKIKVRIKVKDPETNEYYEIEIEAETEEEALEALKKLFPNVKKVEIVPASAGGSAGGSAGG [r11_25_TrROS_Hall] | 3.26 ± 0.11 kcal/mol
13 | SAMVLDVSELTKKAIEELKKKNPKPLSPEEIVELGKKVAAEVAEKLGIPLKEIKVEPTGKHPKAVAELPSAG [r14_147_TrMRF] | 0.527 ± 0.096 kcal/mol
14 | SAGMGLVGRTKDGKWIPAADLTEEQLKDMELDLGEPLPPVVVKVEVEWKLSPEDKLEVKLKVEVFVEGSAGG [r19_232_TrMRF] | 1.02 ± 0.15 kcal/mol
15 | SAGVIPESLIEKVETEEYPGGITRSTYTYPDGVTVTVEETKVPGTDGITRKITVYPPTNTTTETTVTDPSAG [r5_802_JUSTAS] | 0.29 ± 0.098 kcal/mol
16 | SAGGSAGGSAGKNMVEIEMMFVLPDGWFIKTSLRINPDKPGRIHEVEIEIRKIPPNDEQISAGGSAGGSAGG [r17_299_TrROS] | 3.51 ± 0.24 kcal/mol

Row | Sequence | folding stability dG unfold
17 | SAGGSMSPEEKARKLAEELRKKLPPGAKVRIKVEVDGKTYEIEIEPGEEIEFPPGEKVKIVEIEVESAGGSA [r2_391_TrROS_Hall] | 3.12 ± 0.16 kcal/mol
18 | SAGGIWIKVPDGGWVRIQIEHPGNGRPREETIPGGDIKDLIKSLSSSPDFPNYKVKIEVWDGGKPKPISAGG [r13_914_TrROS] | 0.923 ± 0.03 kcal/mol
19 | SAPNYPFFVRIKLPGNGQEVEFPIESPEEADEMLDNFANHPHIKDIDIYRPDGEEVEIEIKIPPEALKQSAG [r14_747_TrROS] | -0.622 ± 0.3 kcal/mol
20 | SAGGSAGLAEAILREAASAGIPLENVRIVDVRAFVTPDAVVFRARIEYRLPNSTSLAYADAVVPAPSAGGSA [r15_863_TrMRF] | 1.42 ± 0.026 kcal/mol
21 | SMKVKTYTFKIKVDGKEIEVTVEELEDGELLVTIKIKENGKEKTIVVSREELEELLKALLPPGAEIEKVESA [r9_384_TrROS_Hall] | 2.99 ± 0.13 kcal/mol
22 | SAGGSAGGSAGMPIKTLKTTLVSVEKEPPGEGSYITTKSVTEFPDGSKSVTTTTVPASLLSAGGSAGGSAGG [r17_268_JUSTAS] | -0.653 ± 0.59 kcal/mol
23 | SAGGKAKIVEIKYNEETGTVTIKIKNEDGEEYEISIKLPPGAKIEIDEDGNITIKDIPAEQIEVRKVSAGGS [r16_515_TrROS_Hall] | 0.895 ± 0.03 kcal/mol
24 | SAGGGASLNSIKISKIPGLNKYKITLPTSAAPGTEVTITINNPKGKETLTFTLPVKPLPGNTVVLLLSAGGS [r8_195_JUSTAS] | 1.46 ± 0.045 kcal/mol
25 | SAGGSPPDNFKMEPIPLRFPNGWKITVMVMRNPDDGRPYVSVEIEPPNDGKEVKFMMPADDLKDFISAGGSA [r2_366_TrROS] | 1.5 ± 0.054 kcal/mol
26 | SAGGSAGGSAGGSSITIEEEGGKLRITVTNENGEKSEFEFPPGAKITLPEGVKLELEKESAGGSAGGSAGGS [r4_447_TrROS_Hall] | 0.549 ± 0.082 kcal/mol
27 | SAGGSEEERKRILEELKKKNPEKDVEVKVERKTYKVPAGTVVTLPDGTKIVAPADTTVEIYKVEIIKSAGGS [r16_357_JUSTAS] | 1.32 ± 0.068 kcal/mol
28 | SAGGSANEILEKLGYPEENIVERKKVFKLPNGTELYEYVIPKTENGVTATILVEKTPKGVKIKVLPSAGGSA [r15_813_JUSTAS] | -0.642 ± 0.44 kcal/mol
29 | SMKIEPHPDGTVTFTIPAEFPDIPAEEIAALIEKALPPGVRLGEEITVERDPETGEVRVTAKVEVPPDAVSA [r9_1011_TrMRF] | 2.49 ± 0.12 kcal/mol
30 | SAGGSSPAARRLAKRIAKLMMKKHPPGEKRTVEIELPDGVEIKATFNNNGNIDDIEIRSPDGEPIISAGGSA [r2_84_TrROS] | 0.771 ± 0.17 kcal/mol
31 | SAGGSAGGSAGGSGNYVPGPSLVTFYDPKTNKWTVVKSAPEEAVKLKASLPENVAKISLSAGGSAGGSAGGS [r4_282_JUSTAS] | -0.237 ± 0.21 kcal/mol
